Experimental data taken from patent US6133009.

Tested on: HpyCH4V restriction endonuclease (Helicobacter pylori CH4)
Assay: cleavage_in_vitro
Conditions: fragments of 576, 498, 441, 335, 315, 312, 296, 244, 205 bp and 12 smaller than 200 bp

Substance pBR322 DNA has a number of cleavage fragments of 21 fragments.
